From IntAct's records for PubMed 10918185

B1: Tumor necrosis factor receptor superfamily member 6 (Homo sapiens), P25445 (parent)
chain: MLGIWTLLPLVLTSVARLSSKSVNAQVTDINSKGLELRKTVTTVETQNLEGLHHDGQFCHKPCPPGERKARDCTVNGDEPDCVPCQEGKEYTDKAHFSSKCRRCRLCDEGHGLEVEINCTRTQNTKCRCKPNFFCNSTVCEHCDPCTKCEHGIIKECTLTSNTKCKEEGSRSNLGWLCLLLLPIPLIVWVKRKEVQKTCRKHRKENQGSHESPTLNPETVAINLSDVDLSKYITTIAGVMTLSQVKGFVRKNGVNEAKIDEIKNDNVQDTAEQKVQLLRNWHQLHGKKEAYDTLIKDLKKANLCTLAEKIQTIILKDITSDSENSNFRNEIQSLV

Variants of: B1
Settings: with ptn13_human PTPN13, Q12923
ptn13_human PTPN13, Q12923, sequence (Q12923 whole entry): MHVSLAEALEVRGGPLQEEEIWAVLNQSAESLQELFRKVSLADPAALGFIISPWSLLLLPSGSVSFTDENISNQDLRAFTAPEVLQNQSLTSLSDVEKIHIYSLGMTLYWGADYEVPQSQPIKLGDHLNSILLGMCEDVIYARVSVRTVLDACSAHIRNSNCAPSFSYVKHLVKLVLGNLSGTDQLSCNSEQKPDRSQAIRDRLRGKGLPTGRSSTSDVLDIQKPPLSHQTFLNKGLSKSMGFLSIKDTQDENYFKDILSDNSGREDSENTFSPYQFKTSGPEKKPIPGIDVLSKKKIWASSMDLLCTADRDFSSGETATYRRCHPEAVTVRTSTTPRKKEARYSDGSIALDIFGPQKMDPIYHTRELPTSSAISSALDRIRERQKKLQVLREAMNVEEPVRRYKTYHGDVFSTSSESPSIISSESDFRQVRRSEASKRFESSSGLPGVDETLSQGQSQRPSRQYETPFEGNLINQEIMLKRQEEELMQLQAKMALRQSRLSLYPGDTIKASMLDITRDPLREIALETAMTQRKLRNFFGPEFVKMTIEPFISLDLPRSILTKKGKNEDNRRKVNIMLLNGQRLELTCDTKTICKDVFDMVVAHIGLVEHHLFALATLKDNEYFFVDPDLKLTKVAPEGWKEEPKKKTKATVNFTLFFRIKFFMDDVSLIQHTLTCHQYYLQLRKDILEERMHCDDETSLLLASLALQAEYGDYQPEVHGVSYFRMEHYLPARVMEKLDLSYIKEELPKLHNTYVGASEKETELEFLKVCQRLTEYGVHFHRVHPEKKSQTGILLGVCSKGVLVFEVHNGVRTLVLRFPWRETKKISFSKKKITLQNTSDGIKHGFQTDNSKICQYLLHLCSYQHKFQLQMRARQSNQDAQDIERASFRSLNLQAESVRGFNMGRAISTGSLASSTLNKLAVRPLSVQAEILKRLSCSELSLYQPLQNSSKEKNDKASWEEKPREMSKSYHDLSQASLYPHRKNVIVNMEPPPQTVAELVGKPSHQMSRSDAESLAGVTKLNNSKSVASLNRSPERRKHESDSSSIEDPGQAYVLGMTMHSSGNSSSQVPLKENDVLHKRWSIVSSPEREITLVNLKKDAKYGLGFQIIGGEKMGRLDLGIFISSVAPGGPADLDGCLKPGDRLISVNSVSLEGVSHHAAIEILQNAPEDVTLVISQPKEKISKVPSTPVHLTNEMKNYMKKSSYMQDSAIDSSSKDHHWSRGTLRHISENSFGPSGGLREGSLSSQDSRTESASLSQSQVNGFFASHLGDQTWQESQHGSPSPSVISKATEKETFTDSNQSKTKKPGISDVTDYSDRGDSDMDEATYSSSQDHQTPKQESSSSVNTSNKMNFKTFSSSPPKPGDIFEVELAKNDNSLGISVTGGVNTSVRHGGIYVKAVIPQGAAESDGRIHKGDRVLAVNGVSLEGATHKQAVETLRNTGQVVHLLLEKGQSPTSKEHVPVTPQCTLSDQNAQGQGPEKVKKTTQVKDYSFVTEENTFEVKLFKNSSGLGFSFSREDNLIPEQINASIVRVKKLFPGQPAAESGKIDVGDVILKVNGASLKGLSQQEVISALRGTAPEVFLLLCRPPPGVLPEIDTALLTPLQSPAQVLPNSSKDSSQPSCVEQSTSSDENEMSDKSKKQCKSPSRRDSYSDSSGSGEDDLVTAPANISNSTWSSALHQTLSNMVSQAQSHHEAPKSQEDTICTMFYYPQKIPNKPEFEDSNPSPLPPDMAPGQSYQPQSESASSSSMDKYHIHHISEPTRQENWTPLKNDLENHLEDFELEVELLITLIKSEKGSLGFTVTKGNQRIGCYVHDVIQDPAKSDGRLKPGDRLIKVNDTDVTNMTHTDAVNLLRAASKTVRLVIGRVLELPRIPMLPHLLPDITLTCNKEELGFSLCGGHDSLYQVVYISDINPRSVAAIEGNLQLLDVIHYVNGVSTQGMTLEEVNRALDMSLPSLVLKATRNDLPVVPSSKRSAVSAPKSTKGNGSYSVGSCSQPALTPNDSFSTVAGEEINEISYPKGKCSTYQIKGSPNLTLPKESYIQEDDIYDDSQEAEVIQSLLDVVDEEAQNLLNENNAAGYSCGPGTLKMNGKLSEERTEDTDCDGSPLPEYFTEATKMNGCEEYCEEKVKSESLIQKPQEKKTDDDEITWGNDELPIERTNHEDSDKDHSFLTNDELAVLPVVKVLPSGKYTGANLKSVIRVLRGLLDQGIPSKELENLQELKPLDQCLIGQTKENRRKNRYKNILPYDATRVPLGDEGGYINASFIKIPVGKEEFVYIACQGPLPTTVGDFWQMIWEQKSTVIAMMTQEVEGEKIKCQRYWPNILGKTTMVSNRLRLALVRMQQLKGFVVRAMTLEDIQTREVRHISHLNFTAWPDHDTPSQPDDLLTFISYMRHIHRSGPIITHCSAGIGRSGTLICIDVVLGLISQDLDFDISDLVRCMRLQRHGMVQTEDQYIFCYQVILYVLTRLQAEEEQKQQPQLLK

effect of a mutation on the interaction	Variant
decreasing interaction	MLGIWTLLPLVLTSVARLSSKSVNAQVTDINSKGLELRKTVTTVETQNLEGLHHDGQFCHKPCPPGERKARDCTVNGDEPDCVPCQEGKEYTDKAHFSSKCRRCRLCDEGHGLEVEINCTRTQNTKCRCKPNFFCNSTVCEHCDPCTKCEHGIIKECTLTSNTKCKEEGSRSNLGWLCLLLLPIPLIVWVKRKEVQKTCRKHRKENQGSHESPTLNPETVAINLSDVDLSKYITTIAGVMTLSQVKGFVRKNGVNEAKIDEIKNDNVQDTAEQKVQLLRNWHQLHGKKEAYDTLIKDLKKANLCTLAEKIQTIILKDITSDSENSNFRNEIQPLV [S333P]
